We go through two molecules from patent publication US11453711B2, “Fusion proteins of GLP-1 and GDF15 and conjugates thereof” (BEIJING QL BIOPHARMACEUTICAL CO., LTD., priority 2019, dated 2022).

As usually defined, the Tmax is the time at which the peak concentration occurs.

Series [1] in a line: Body weight and food intake in C57BL/6 mice, fusion protein conjugates, 30 nmol/kg daily 10 days. The series is classed as in vivo. In outline:
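Male C57BL/6 mice received fusion protein conjugates by daily subcutaneous injection, with dosing running from Day 1 to Day 10. Body weight was recorded daily per animal and food intake daily per group. Body weight reduction was expressed relative to vehicle percent loss from Day 1. Cumulative food intake reduction was expressed as percent decrease versus vehicle.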

Series [2] is described as follows: Efficacy in db/db mice: body weight, food intake, glucose, biomarkers, daily sc 14 days. In kind it is in vivo. On the procedure: FIGS. 4A-4D show In vivo efficacy in db/db mice. To evaluate the body weight, food intake and glucose effects of the fusion proteins, 8 week old male db/db mice were dosed everyday subcutaneously with 30 nmol/kg protein for 14 days. […] Compared to Vehicle control: ***, p<0.001. Data are expressed as mean values and standard error (SEM) for FIGS. 4A, 4B and 4D. n=5 for each treatment group. For FIG. 4C, a pooled food intake was measured for each treatment group.
FIGS. 5A-5F show In vivo efficacy in db/db mice. To evaluate the body weight, food intake and glucose effects of the fusion proteins, 8 week old male db/db mice were dosed everyday subcutaneously with different concentrations of proteins for 14 days. FIGS. 5A and 5B show body weight loss upon protein treatments from Day1 to Day15. […] Compared to Vehicle control: ***, p<0.001; **, p<0.01; *, p<0.05; ns, non-statistically significant; FIGS. 5D and 5E show cumulative food intake with protein treatments from Day1 to Day15. […] Compared to Vehicle control: ***, p<0.001**, p<0.01; *, p<0.05; ns, non-statistically significant. Data are expressed as mean values and standard error (SEM) for FIGS. 5A, 5B, 5C and 5F. n=5 for each treatment group. For FIGS. 5D and 5E, a pooled food intake was measured for each treatment group.
FIGS. 8A-8I show In vivo efficacy in db/db mice. To evaluate the body weight, food intake and glucose effects of the fusion proteins, 8 week old male db/db mice were dosed everyday subcutaneously with different concentrations of proteins for 14 days. […] FIGS. 8D-8F show body weight loss upon dose titrations of fusion protein conjugates. […] Data are expressed as mean values and standard error (SEM) for FIGS. 8A and 8C-I. n=5 for each treatment group. For FIG. 8B, a pooled food intake was measured for each treatment group.
Selected fusion protein conjugates are assessed in disease animal models (DIO mice, db/db mice, etc.) to determine body weight, food intake, glucose efficacy with dose responses. Some biomarkers are also measured, including fasting insulin, plasma triglyceride, cholesterol, liver triglyceride, and inflammatory biomarkers (ALT, AST and CRP).
8 week old male db/db mice were injected everyday subcutaneously with designated proteins for 14 days. Age matched lean mice were used as control. Food intake and body weight were measured daily and five animals were used for each treatment group. Fasting glucose were tested on designated days as shown in each figure. Body weight was monitored for each individual animal, but food intake for each group animals was measured together. Day 1 and Day 14 are first day and last day of molecule dosage. % BW loss=100*(BW on Day n-BW on Day 1)/(BW on Day 1). Cumulative food intake on Day n represents sum of food intake from Day 1 to Day n. Terminal blood was collected and EDTA-2K plasma was prepared and frozen at −80° C. for biomarker measurement. Liver was also collected and frozen in liquid nitrogen and store at −80° C. Data are indicated as mean values and standard error (SEM) or pooled values. Statistical analysis was performed by One-way ANOVA.

Series [3] can be described thus: Efficacy in DIO mice, daily sc 28 days. The series is classed as in vivo, DIO male C57BL/6 mice. On the procedure: FIGS. 6A-6E show In vivo efficacy in DIO mice. To evaluate the body weight, food intake and glucose effects of the fusion proteins, 17 week old DIO mice (C57BL/6 mice on high fat diet for 13 weeks) were dosed everyday subcutaneously with different concentrations of proteins for 28 days. […] FIGS. 6D and 6E show body weight change with dose titrations of MLC089 and MLC093 at 3, 10 and 30 nmol/kg. Data are expressed as mean values and standard error (SEM) for FIGS. 6A, 6C, 6D and 6E. n=5 for each treatment group. For FIG. 6B, a pooled food intake was measured for each treatment group.
17 week old DIO male C57BL/6 mice (˜45 g) were injected everyday subcutaneously with designated proteins (i.e., MLC089, MLC093) for 28 days. Food intake and body weight were measured daily and five animals were used for each treatment group. Fasting glucose was also monitored on designated days. Body weight and glucose were monitored for each individual animal, but food intake for each group animals was measured together. Day 1 and Day 28 are first day and last day of molecule dosage. % BW loss=100*(BW on Day n-BW on Day 1)/(BW on Day 1). Cumulative food intake on Day n represents sum of food intake from Day 1 to Day n. Terminal blood was collected and EDTA-2K plasma was prepared and frozen at −80 C for biomarker measurement. Liver was also collected and frozen in liquid nitrogen and store at −80 C. Data are indicated as mean values and standard error (SEM) or pooled values.

Series [4] in a line: PK study in non-human primates, single sc dose 5 nmol/kg, plasma ELISA. The conditions noted are these: monkey, single sc dose 5 nmol/kg; for Cmax: read-out: Cmax (nmol/L).
Protocol: Plasma samples were collected pre-dose (−5 min), 2 hr, 4 hr, 6 hr, 8 hr, 24 hr, 48 hr, 72 hr, 96 hr, 120 hr, 144 hr, 216 hr, 288 hr, 360 hr, 432 hr and 504 hr after the injection. The concentrations of the fusion protein conjugates in the plasma were measured by an ELISA assay which has immunoreactivity towards both GDF15 and intact N-terminal of GLP-1. Based on the graph showing plasma concentration of each protein versus time after subcutaneous injection, the pharmacokinetic parameters (including Tmax, Cmax, T1/2, AUC) were calculated by WinNonlin software.
A short description of series [5]: Pharmacokinetic measurement in mouse, single sc dose 30 nmol/kg, plasma ELISA. The note with it: for Cmax: read-out: Cmax (nmol/L), single sc dose 30 nmol/kg; for AUC0-24 h / Terminal t1/2 / Tmax: single sc dose 30 nmol/kg. (In general: In an ELISA, binding on a coated surface is turned into a signal by an enzyme label.)
Protocol: Each fusion protein was injected subcutaneously into C57BL/6 mice (n=3/group) once and plasma samples were collected at designed time points and analyzed by ELISA method. Plasma concentrations are indicated as mean values and standard error (SEM).
6-8 week old male C57BL/6 mice were administrated in a single subcutaneous dose of 30 nmol/kg of the fusion protein conjugates or unconjugated fusion proteins (i.e., MLC002, MLC004, MLC005, MLC006, MLC007, MLC008, MLC009, MLC013, MLC017, MLC047, MLC074, MLC075, MLC089, MLC093, MLC003 and MLC019) (n=3/group). Plasma samples were collected pre-dose (−5 min), 0.5 hr, 1 hr, 2 hr, 4 hr, 6 hr, 8 hr, 12 hr, 24 hr, 48 hr and 72 hr after the injection. The concentrations of the fusion protein conjugates in the plasma were measured by an ELISA assay which has immunoreactivity towards both GDF15 and intact N-terminal of GLP-1. Based on the graph showing plasma concentration of each protein versus time after subcutaneous injection, the pharmacokinetic parameters (including Tmax, Cmax, T1/2, AUC) were calculated by WinNonlin software.
Series [6] can be described thus: Body weight and food intake in lean C57BL/6 mice, lysine conjugated compounds, 15 nmol/kg daily sc 14 days. The series is classed as in vivo. On the procedure:
FIGS. 1A-1F show In vivo activities of fusion proteins. To evaluate the body weight and food intake effects of the fusion proteins, 10 week old male C57BL/6J mice were dosed everyday subcutaneously with 15 nmol/kg protein for 14 days. Food intake and body weight were measured daily. FIGS. 1A and 1B show body weight loss upon protein treatments from Day1 to Day15. […] FIGS. 1D and 1E show cumulative food intake with protein treatments from Day1 to Day15. […] Vehicle: 1.42 mg/mL disodium phosphate dihydrate, 14 mg/mL propylene glycol pH7.4. Data are expressed as mean values and standard error (SEM) for FIGS. 1A, 1B and 1C. n=5 for each treatment group. For FIGS. 1D, 1E and 1F, a pooled food intake was measured for each treatment group.
10 week old male C57BL/6 mice were injected everyday subcutaneously with 15 nmol/kg of the fusion protein conjugates (i.e., MLC002, MLC 004, MLC 005, MLC 006, MLC 007, MLC 008, and MLC 009) for 14 days. Food intake and body weight were measured daily and five animals were used for each treatment group. Body weight (BW) was monitored for each individual animal, but food intake for each group animals was measured together. Day 1 and Day 14 are first day and last day of molecule dosage. % BW loss=100*(BW on Day n-BW on Day 1)/(BW on Day 1). Cumulative food intake on Day n represents sum of food intake from Day 1 to Day n. Data are indicated as mean values and standard error (SEM) or pooled values. Statistical analysis was performed by One-way ANOVA. Body weight reduction on Day 11 is calculated by −1*(% BW loss−% BW loss of vehicle group); Cumulative food intake reduction is calculated by −100*(cumulative food intake-cumulative food intake of vehicle)/cumulative food intake of vehicle.

Where [7] appears, read: 30 nmol/kg, FIG. 8A-C, versus Semaglutide, Tirzepatide and MLC014.
[8] abbreviates: C57 mice, 15 nmol/kg daily sc, Day11.

B1: MLC089: fusion polypeptide SEQ ID NO: 379 conjugated with Moiety B at 39C of Linker (conjugate)
chain: HGEGTFTSDVSSYLEEQAAKEFIAWLVRGGGGAQPGAQPGAQPGAQPGAQPGAQPGAQPGAQPGQEPGQCPGQEPGAQPGQEPGAQPGQEPGAQPGQEPGAQPGQEPGAQPARQGDHCPLGPGRCCRLHTVRASLEDLGWADWVLSPREVQVTMCIGACPSQFRAANLHAQIKTSLHRLKPDTVPAPCCVPASYNPMVLIQKTDTGVSLQTYDDLLAKDCHCI
modifications: Moiety B conjugated at linker Cys39
As for B1, in series [1], the “Body weight reduction at 30 nmol/kg (% reduction compared to vehicle)(Day11)” value came out at 24.6% and the “Cumulative food intake reduction at 30 nmol/kg (% reduction compared to vehicle)(Day11)” value amounted to 29.9%. In addition, in series [2] (setting [7]), the body weight loss result is “more body weight loss, food intake suppression and glycemic control”; the food intake suppression result was “more body weight loss, food intake suppression and glycemic control”; the glycemic control entry was “more body weight loss, food intake suppression and glycemic control”. For the same molecule, in series [2] (FIG. 8 study), the efficacy entry was “better efficacy than Semaglutide and GDF15 derivative (MLC014)”. In addition, the “body weight reduction efficacy” value in series [3] (DIO mice, 30 nmol/kg daily 28 days, FIG. 6A) was “much better body weight reduction efficacy than Semaglutide and GDF15 derivative (MLC014)”. Also, the “dose dependence of body weight reduction” value in series [3] (DIO mice, 3, 10 and 30 nmol/kg, FIGS. 6D and 6E) is “dose dependent efficacy on body weight reduction”. Moreover, the fasting glucose entry in series [3] (DIO mice, FIG. 6C) was “reached similar level to Semaglutide”. In addition, the efficacy entry in series [3] (DIO study, FIG. 6) is “better efficacy than Semaglutide and GDF15 derivative (MLC014)”. For the same molecule, in series [4], the “AUC0-96 h” value was 3.413 µM·h, the “Terminal t1/2” value was 54 h, the “Tmax” value worked out at 8 h and the Cmax was found to be 70.5 nmol/L. For the same molecule, in series [5], the Cmax was found to be 116 nmol/L, the “AUC0-24 h” value is 1.9822 µM·h, the “Terminal t1/2” value came to 14.7 h and the “Tmax” value amounted to 10.7 h.

B2: MLC004: fusion polypeptide SEQ ID NO: 251 conjugated with Moiety A at 26K of GLP-1 (conjugate)
chain: HGEGTFTSDVSSYLEEQAAKEFIAWLVRGGGGQEPGAQPGQEPGAQPGQEPGAQPGQEPGAQPGQEPGAQPGQEPGAQPGAQPGAQPGAQPGAQPGAQPGAQPGAQPGAQPARQGDHCPLGPGRCCRLHTVRASLEDLGWADWVLSPREVQVTMCIGACPSQFRAANLHAQIKTSLHRLRPDTVPAPCCVPASYNPMVLIQRTDTGVSLQTYDDLLARDCHCI
modifications: Moiety A conjugated at K26
With B2, the BW reduction result in series [6] (15 nmol/kg daily sc 14 days, versus Semaglutide) is “statistically significantly enhanced BW loss efficacy than Semaglutide”. Moreover, in series [6] (setting [8]), the “Body weight reduction at 15 nmol/kg (% reduction compared to vehicle)(Day11)” value is 13.9% and the “Cumulative food intake reduction at 15 nmol/kg (% reduction compared to vehicle)(Day11)” value came out at 21.8%. In series [1], the “Body weight reduction at 30 nmol/kg (% reduction compared to vehicle)(Day11)” value amounted to 18.3% and the “Cumulative food intake reduction at 30 nmol/kg (% reduction compared to vehicle)(Day11)” value is given as 35.0%. Moreover, in series [4], the “AUC0-96 h” value amounted to 0.79 µM·h, the “Terminal t1/2” value stood at 13 h, the “Tmax” value stood at 8 h and the Cmax is 32.1 nmol/L. In addition, in series [5], the Cmax amounted to 15.1 nmol/L, the “AUC0-24 h” value was 0.1745 µM·h, the “Terminal t1/2” value is 7.4 h and the “Tmax” value was 3.3 h.
